# Assay results from US20120316071A1 (published 2012).
# T1: rHuman Erythropoietin R/Fc Chimera, CF (R&D Systems Cat#963-ER) (human, UniProt P19235 25-250)
# T1 construct: Bought recombinant protein; also called EPO R/Fc; Epo R; Fc part of the bought chimera not given
# T1 sequence (looked up): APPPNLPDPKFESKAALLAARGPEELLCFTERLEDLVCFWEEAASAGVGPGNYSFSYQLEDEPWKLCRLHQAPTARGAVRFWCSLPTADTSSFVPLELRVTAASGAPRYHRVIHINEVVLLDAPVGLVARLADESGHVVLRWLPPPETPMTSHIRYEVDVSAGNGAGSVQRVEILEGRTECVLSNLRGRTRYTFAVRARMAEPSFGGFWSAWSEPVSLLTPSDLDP
# T2: rHuman Erythropoietin R/Fc Chimera, CF (R&D Systems Cat#963-ER) (human, UniProt P19235 25-250)
# T2 construct: Bought recombinant protein; also called EPO R; EPO R/Fc; Fc part of the bought chimera not given
# T2 sequence (looked up): T1 sequence (looked up)
# T3: rHuman Erythropoietin R/Fc Chimera, CF (R&D Systems Cat#963-ER) (human, UniProt P19235 25-250)
# T3 construct: Bought recombinant protein; also called EPO R; Epo R; Fc part of the bought chimera not given
# T3 sequence (looked up): T1 sequence (looked up)
# B1: Fab VH4-28_IGHD7-27*01_IGHJ1*01 & L2_IGKJ1*01 (Fab, V domains shown)
# VH: QVQLQESGPGLVKPSDTLSLTCAVSGYSISSSNWWGWIRQPPGKGLEWIGYIYYSGSTYYNPSLKSRVTMSVDTSKNQFSLKLSSVTAVDTAVYYCARTNWGAEYFQHWGQGTLVTVSS
# VL: not shown
# B2: Fab VH5-51_IGHD5-18*01>3_IGHJ3*01 & V3-4_IGLJ1*01 (Fab, V domains shown)
# VH: EVQLVQSGAEVKKPGESLKISCKGSGYSFTSYWIGWVRQMPGKGLEWMGIIYPGDSDTRYSPSFQGQVTISADKSISTAYLQWSSLKASDTAMYYCARRGYSYGYDAFDVWGQGTLVTVSS
# VL: QTVVTQEPSFSVSPGGTVTLTCGLSSGSVSTSYYPSWYQQTPGQAPRTLIYSTNTRSSGVPDRFSGSILGNKAALTITGAQADDESDYYCVLYMGSGISYVFGTGTKVTVL
# notes: Fab; the JH germline segment IGHJ4*01 of the parent is swapped for IGHJ3*01; Constant parts come from Plasmid A (CH1, His6, Flag) and Plasmid E (lambda CL); also called J-swap mutant IGHJ3*01
# B3: Fab VH3-23_IGHD2-21*01>3_IGHJ6*01 H100E/S108P/Y113G (EPG) Y109P & V2-13_IGLJ2*01 (Fab, V domains shown)
# VH: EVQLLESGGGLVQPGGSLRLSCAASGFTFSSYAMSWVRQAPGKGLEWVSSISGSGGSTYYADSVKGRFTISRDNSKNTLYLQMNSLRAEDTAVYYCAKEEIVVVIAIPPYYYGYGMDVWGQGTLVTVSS
# VL: SSELTQDPAVSVALGQTVRITCQGDSLRSYYASWYQQKPGQAPVLVIYGKNNRPSGIPDRFSGSSSGNTASLTITGAQAEDEADYYCNSRDSSGNHLVVFGGGTKLTVL
# notes: Fab; NNK mutant of the EPG heavy chain; CH1 (tags) and lambda CL come from the vectors
# B4: Fab VH3-23_IGHD2-21*01>3_IGHJ6*01 H100E/S108P/Y113G Y110E & V2-13_IGLJ2*01 (Fab, V domains shown)
# VH: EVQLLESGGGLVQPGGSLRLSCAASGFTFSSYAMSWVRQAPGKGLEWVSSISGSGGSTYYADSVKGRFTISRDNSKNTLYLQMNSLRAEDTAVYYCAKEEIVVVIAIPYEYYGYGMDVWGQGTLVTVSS
# VL: B3 VL
# notes: Tested as Fab made in E. coli: VH joined to CH1 (His and Flag tags), VL joined to lambda CL; also called EPG Y110E
# What was measured:
# [1] = target: T4, rHuman HGF R/c-MET/Fc Chimera, CF (R&D Systems Cat#358-MT/CF) (human, UniProt P08581 25-932); test: Multispot ECL (MSD), antigen spotted on plate, Fab 36 nM; blank spot 413
# T4 construct: Bought recombinant protein; also called HGF R/Fc; hepatocyte growth factor receptor (HGF R/c-Met); Fc part of the bought chimera not given
# [2] = target: T5, rHuman ErbB2/Fc Chimera, CF (R&D Systems Cat#1129-ER) (human, UniProt P04626 23-652); test: as above
# T5 construct: Bought recombinant protein; also called human epidermal growth factor 2 receptor (ErbB2); Fc part of the bought chimera not given
# [3] = target: T1, rHuman Erythropoietin R/Fc Chimera, CF …; test: as above
# [4] = target: T6, rHuman IGF-1 sR, CF (R&D Systems Cat#391-GR) (human, UniProt P08069 31-932); test: as above
# T6 construct: Bought recombinant soluble receptor; also called insulin-like growth factor-1 soluble receptor
# [5] = target: T7, rHuman CD44/Fc Chimera, CF (R&D Systems Cat#3660-CD) (human, UniProt P16070 21-220); test: as above
# T7 construct: Bought recombinant protein; Fc part of the bought chimera not given
# [6] = target: T8, rHuman P-Cadherin/Fc Chimera, CF (R&D Systems Cat#861-PC) (human, UniProt P22223 108-654); test: as above
# T8 construct: Bought recombinant protein; Fc part of the bought chimera not given
# [7] = target: T4, rHuman HGF R/c-MET/Fc Chimera, CF (R&D …); test: Multispot ECL (MSD), antigen spotted on plate, Fab 360 nM; blank spot 462
# [8] = target: T5, rHuman ErbB2/Fc Chimera, CF (R&D …); test: as above
# [9] = target: T1, rHuman Erythropoietin R/Fc Chimera, CF …; test: as above
# [10] = target: T6, rHuman IGF-1 sR, CF (R&D Systems …); test: as above
# [11] = target: T7, rHuman CD44/Fc Chimera, CF (R&D Systems …); test: as above
# [12] = target: T8, rHuman P-Cadherin/Fc Chimera, CF (R&D …); test: as above
# [13] = target: T9, Recombinant Human DLL4 (R&D Systems Cat#1506-D4/CF) (human, UniProt Q9NR61 27-524); test: ECL (MSD) binding assay, DLL4 coated on plate, Fab 0.04 uM
# T9 construct: Bought recombinant human DLL4 coated on the ECL plate; also called delta-like protein 4; Delta-like 4
# [14] = target: T10, rHuman HGF R/c-MET/Fc Chimera, CF (R&D Systems Cat#358-MT/CF) (human, UniProt P08581 25-932); test: ECL multispot (MSD), 20 nM Fab;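 note: purified Fab binding to antigens on multispot plates, read by electrochemiluminescence with a TAG-labelled detection antibody, 1 h Fab incubation at 20 °C, signal expressed relative to each well's blank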
# T10 construct: Bought recombinant protein; also called HGF R/Fc; hepatocyte growth factor receptor; Fc part of the bought chimera not given
# [15] = target: T2, rHuman Erythropoietin R/Fc Chimera, CF …; test: ECL multispot (MSD), 20 nM Fab;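 note: purified Fab binding to antigens on multispot plates, read by electrochemiluminescence with a TAG-labelled detection antibody, 1 h Fab incubation at 20 °C, signal expressed relative to each well's blank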
# [16] = target: T11, rHuman P-Cadherin/Fc Chimera, CF (R&D Systems Cat#861-PC) (human, UniProt P22223 108-654); test: ECL multispot (MSD), 20 nM Fab;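 note: purified Fab binding to antigens on multispot plates, read by electrochemiluminescence with a TAG-labelled detection antibody, 1 h Fab incubation at 20 °C, signal expressed relative to each well's blank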
# T11 construct: Bought recombinant protein; Fc part of the bought chimera not given
# [17] = target: T12, rHuman CD44/Fc Chimera, CF (R&D Systems Cat#3660-CD) (human, UniProt P16070 21-220); test: ECL multispot (MSD), 20 nM Fab;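 note: purified Fab binding to antigens on multispot plates, read by electrochemiluminescence with a TAG-labelled detection antibody, 1 h Fab incubation at 20 °C, signal expressed relative to each well's blank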
# T12 construct: Bought recombinant protein; Fc part of the bought chimera not given
# [18] = target: T13, rHuman IGF-1 sR, (IGF-1 sR), CF (R&D Systems Cat#391-GR) (human, UniProt P08069 31-932); test: ECL multispot (MSD), 20 nM Fab
# T13 construct: Bought recombinant soluble receptor; also called insulin-like growth factor-1 soluble receptor
# [19] = target: T14, rHuman ErbB2/Fc Chimera, CF (R&D Systems Cat#1129-ER) (human, UniProt P04626 23-652); test: ECL multispot (MSD), 20 nM Fab
# T14 construct: Bought recombinant protein; also called human epidermal growth factor 2 receptor; Fc part of the bought chimera not given
# [20] = target: T15, Recombinant Human DLL4 (R&D Systems Cat#1506-D4/CF) (human, UniProt Q9NR61 27-524); test: ECL multispot (MSD), 20 nM Fab
# T15 construct: Bought recombinant protein; also called delta-like protein 4; rHuman DLL4
# [21] = target: T16, rHuman Notch-1/Fc Chimera, CF (R&D Systems Cat#3647-TK) (human, UniProt P46531 19-526); test: ECL multispot (MSD), 20 nM Fab
# T16 construct: Bought recombinant protein; Fc part of the bought chimera not given
# [22] = target: T17, rHuman EGF R/Fc Chimera, CF (R&D Systems Cat#344-ER) (human, UniProt P00533 25-645); test: ECL multispot (MSD), 20 nM Fab
# T17 construct: Bought recombinant protein; also called epidermal growth factor receptor; Fc part of the bought chimera not given
# [23] = target: T3, rHuman Erythropoietin R/Fc Chimera, CF …; test: ECL multispot (MSD) binding assay, antigens spotted on plate, 20 nM Fab;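 note: fab incubated 1 h at 20 °C on antigen-spotted wells, bound Fab detected by TAG-labelled antibody, ratio of 4 or more over blank counted as a hit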
# [24] = target: T18, Recombinant Human DLL4 (R&D Systems Cat#1506-D4/CF) (human, UniProt Q9NR61 27-524); test: as above
# T18 construct: Bought recombinant protein; also called delta-like protein 4; rHuman DLL4
# [25] = target: T19, rHuman Notch-1/Fc Chimera, CF (R&D Systems Cat#3647-TK) (human, UniProt P46531 19-526); test: as above
# T19 construct: Bought recombinant protein; Fc part of the bought chimera not given
# [26] = target: T20, rHuman CD44/Fc Chimera, CF (R&D Systems Cat#3660-CD) (human, UniProt P16070 21-220); test: as above
# T20 construct: Bought recombinant protein; Fc part of the bought chimera not given
# [27] = target: T21, rHuman P-Cadherin/Fc Chimera, CF (R&D Systems Cat#861-PC) (human, UniProt P22223 108-654); test: as above
# T21 construct: Bought recombinant protein; Fc part of the bought chimera not given
# [28] = target: T22, rHuman ErbB2/Fc Chimera, CF (R&D Systems Cat#1129-ER) (human, UniProt P04626 23-652); test: as above
# T22 construct: Bought recombinant protein; also called human epidermal growth factor 2 receptor; Fc part of the bought chimera not given
# [29] = target: T23, rHuman HGF R/c-MET/Fc Chimera, CF (R&D Systems Cat#358-MT/CF) (human, UniProt P08581 25-932); test: as above
# T23 construct: Bought recombinant protein; also called HGF R/Fc; hepatocyte growth factor receptor; Fc part of the bought chimera not given
# [30] = target: T24, rHuman EGF R/Fc Chimera, CF (R&D Systems Cat#344-ER) (human, UniProt P00533 25-645); test: as above
# T24 construct: Bought recombinant protein; also called epidermal growth factor receptor; Fc part of the bought chimera not given
# [31] = target: T25, rHuman IGF-1 sR, (IGF-1 sR), CF (R&D Systems Cat#391-GR) (human, UniProt P08069 31-932); test: as above
# T25 construct: Bought recombinant soluble receptor; The column head prints only 'IGF-1'; also called insulin-like growth factor-1 soluble receptor
binder,measurement,setting,value
B1,ECL signal,[1],613
same,ECL signal,[2],600
same,ECL signal,[3],2980
same,ECL signal,[4],486
same,ECL signal,[5],679
same,ECL signal,[6],693
same,ECL signal,[7],581
same,ECL signal,[8],647
same,ECL signal,[9],4720
same,ECL signal,[10],535
same,ECL signal,[11],740
same,ECL signal,[12],636
B2,Signal/Noise,[13],3.1
B3,ECL signal ratio (column head gives no unit),[14],1.8
same,ECL signal ratio (column head gives no unit),[15],1.8
same,ECL signal ratio (column head gives no unit),[16],1.9
same,ECL signal ratio (column head gives no unit),[17],1.1
same,ECL signal ratio (column head gives no unit),[18],1.4
same,ECL signal ratio (column head gives no unit),[19],1.5
same,ECL signal ratio (column head gives no unit),[20],1.6
same,ECL signal ratio (column head gives no unit),[21],1.1
same,ECL signal ratio (column head gives no unit),[22],1.6
B4,ECL multispot signal (ratio to blank; column not labelled),[23],2.2
same,ECL multispot signal (ratio to blank; column not labelled),[24],1.8
same,ECL multispot signal (ratio to blank; column not labelled),[25],1.5
same,ECL multispot signal (ratio to blank; column not labelled),[26],1.3
same,ECL multispot signal (ratio to blank; column not labelled),[27],2
same,ECL multispot signal (ratio to blank; column not labelled),[28],1.7
same,ECL multispot signal (ratio to blank; column not labelled),[29],1.8
same,ECL multispot signal (ratio to blank; column not labelled),[30],1.6
same,ECL multispot signal (ratio to blank; column not labelled),[31],1.4
